# Results: the Human Domainome abundance scans (Beltran et al. 2025)
# ± gives the uncertainty stated by the source.
# B1: Nanos homolog 2, residues 63 to 115; numbered along this chain, P60321 (parent)
# chain: CNFCKHNGESRHVYSSHQLKTPDGVVVCPILRHYVCPVCGATGDQAHTLKYCP
# Variants of: B1
# Assay: abundance fitness (aPCA) (normalised: wild type 0, dead -1); higher = more abundant; growth selection in yeast, the domain comes from the species named
# Conditions: Homo sapiens
row,Variant,abundance fitness
1,V26T,-0.111 ± 0.077
2,V26W,-0.46 ± 0.071
3,V26F,-0.284 ± 0.14
4,V26G,-0.441 ± 0.057
5,V26S,-0.322 ± 0.092
6,K50E,-0.185 ± 0.11
7,K50A,-0.284 ± 0.09
8,K50Y,-0.318 ± 0.3
9,K50M,-0.063 ± 0.16
10,K50V,-0.22 ± 0.075
11,V35K,-0.076 ± 0.1
12,V35M,-0.51 ± 0.2
13,V35F,-0.676 ± 0.2
14,C28G,-0.535 ± 0.058
15,C28F,-0.91 ± 0.18
16,C28W,-1.03 ± 0.26
17,C28D,-0.643 ± 0.21
18,L49E,-0.095 ± 0.11
19,L49P,0.026 ± 0.12
20,L49T,0.016 ± 0.11
21,L49C,-0.368 ± 0.12
22,N7G,-0.144 ± 0.1
23,N7Q,-0.263 ± 0.11
24,N7H,-0.036 ± 0.13

row,Variant,abundance fitness
1,N7R,-0.036 ± 0.083
2,C4A,-1.06 ± 0.11
3,C4S,-0.635 ± 0.06
4,C4P,-0.693 ± 0.067
5,L19M,-0.051 ± 0.12
6,Q45A,-0.069 ± 0.077
7,Q45S,0.039 ± 0.091
8,Q45L,-0.037 ± 0.094
9,Q45D,-0.015 ± 0.12
10,Q18N,0.097 ± 0.12
11,Q18F,-0.079 ± 0.069
12,H47A,-0.431 ± 0.11
13,V27F,-0.049 ± 0.12
14,G40F,-0.012 ± 0.23
15,G40C,-0.023 ± 0.073
16,G40M,-0.107 ± 0.098
17,G40H,0.051 ± 0.16
18,G40P,-0.595 ± 0.079
19,T42E,-0.128 ± 0.12
20,T42L,-0.294 ± 0.068
21,T42R,-0.151 ± 0.07
22,T42H,-0.481 ± 0.23
23,I30F,-0.524 ± 0.2
24,I30W,-0.346 ± 0.11

row,Variant,abundance fitness
1,I30A,0.084 ± 0.1
2,P37R,0.088 ± 0.085
3,P37C,-0.34 ± 0.12
4,P37G,-0.046 ± 0.059
5,H17P,-0.828 ± 0.27
6,G8N,-0.161 ± 0.11
7,G8L,-0.23 ± 0.065
8,A41P,-0.593 ± 0.11
9,A41E,-0.032 ± 0.062
10,A41M,-0.05 ± 0.082
11,K20T,-0.118 ± 0.1
12,Y14R,-0.153 ± 0.074
13,Y14G,-0.109 ± 0.076
14,G43Y,-0.703 ± 0.11
15,G43V,-0.679 ± 0.092
16,G43D,-0.125 ± 0.1
17,D44L,-0.453 ± 0.084
18,D44I,-0.457 ± 0.25
19,D44Q,-0.25 ± 0.11
20,D44M,-0.271 ± 0.063
21,D44W,-0.429 ± 0.11
22,D44R,-0.403 ± 0.084
23,D44V,-0.299 ± 0.08
24,D44S,-0.294 ± 0.097

row,Variant,abundance fitness
1,P29Y,-0.721 ± 0.29
2,P29R,-0.503 ± 0.06
3,P29Q,-0.38 ± 0.17
4,C52V,-0.721 ± 0.082
5,C52R,-0.506 ± 0.085
6,R32P,-0.715 ± 0.14
7,R32L,-0.427 ± 0.09
8,R32I,-0.434 ± 0.064
9,R32Q,-0.446 ± 0.13
10,R32T,-0.204 ± 0.065
11,R32W,-0.419 ± 0.1
12,R32H,-0.368 ± 0.16
13,D23W,-0.306 ± 0.11
14,D23S,-0.141 ± 0.084
15,D23R,-0.128 ± 0.071
16,S16N,0.023 ± 0.12
17,S16R,-0.135 ± 0.067
18,S16Q,-0.042 ± 0.055
19,S16L,-0.456 ± 0.074
20,S16H,-0.287 ± 0.12
21,C36V,-0.93 ± 0.098
22,C1S,-0.337 ± 0.17
23,V25Q,-0.05 ± 0.075
24,V25R,0.019 ± 0.086

row,Variant,abundance fitness
1,Y34L,0.042 ± 0.068
2,Y34I,-0.107 ± 0.15
3,Y51W,-0.237 ± 0.098
4,Y51T,-0.097 ± 0.12
5,Y51R,-0.258 ± 0.05
6,Y51I,-0.34 ± 0.17
7,Y51E,-0.368 ± 0.15
8,H6K,0.158 ± 0.059
9,H6A,-0.011 ± 0.07
10,H6M,-0.047 ± 0.1
11,T48L,-0.224 ± 0.088
12,T48A,-0.136 ± 0.077
13,T48V,-0.045 ± 0.079
14,T48C,-0.158 ± 0.097
15,T48Q,-0.031 ± 0.11
16,S15P,-0.326 ± 0.13
17,S15C,-0.158 ± 0.13
18,S15Q,0.034 ± 0.11
19,S15G,0.051 ± 0.098
20,S15T,-0.595 ± 0.072
21,S15L,-0.002 ± 0.071
22,N2I,-0.157 ± 0.12
23,R11I,0.063 ± 0.12
24,R11Q,-0.077 ± 0.18

row,Variant,abundance fitness
1,R11S,-0.047 ± 0.1
2,R11W,-0.408 ± 0.093
3,R11G,-0.084 ± 0.067
4,V38S,0.074 ± 0.084
5,V38H,-0.222 ± 0.16
6,V38T,0.016 ± 0.11
7,V38C,-0.099 ± 0.18
8,V38R,0.172 ± 0.06
9,H33N,0.218 ± 0.093
10,H33C,-0.013 ± 0.11
11,H33I,-0.435 ± 0.19
12,F3P,-1.3 ± 0.097
13,F3I,-0.399 ± 0.25
14,F3G,-1.2 ± 0.11
15,K5L,-0.144 ± 0.046
16,H12E,0.226 ± 0.063
17,H12W,-0.148 ± 0.14
18,H12V,-0.091 ± 0.08
19,H12G,0.056 ± 0.084
20,H12R,-0.049 ± 0.059
21,A46Y,-0.47 ± 0.12
22,A46P,-0.403 ± 0.13
23,A46W,-0.77 ± 0.22
24,A46K,-0.349 ± 0.094

row,Variant,abundance fitness
1,A46I,-0.308 ± 0.17
2,E9Q,-0.116 ± 0.14
3,L31T,-0.207 ± 0.13
4,L31R,-0.415 ± 0.074
5,L31D,-0.622 ± 0.23
6,L31M,-0.153 ± 0.11
7,S10L,-0.194 ± 0.059
8,S10R,0.003 ± 0.076
9,S10C,-0.321 ± 0.099
10,S10K,0.079 ± 0.11
11,S10Y,-0.328 ± 0.16
12,S10G,0.012 ± 0.065
13,P22T,-0.084 ± 0.092
14,P22E,-0.184 ± 0.1
15,P22L,-0.067 ± 0.096
16,P22F,-0.383 ± 0.14
17,G24H,-0.381 ± 0.18
18,G24N,0.113 ± 0.21
19,G24S,-0.311 ± 0.092
20,G24Y,-0.895 ± 0.25
21,G24T,-0.563 ± 0.13
22,G24I,-0.983 ± 0.47
23,C39R,-0.696 ± 0.11
